Source: patent US20110045489A1, “Polymerases for Incorporating Modified Nucleotides” (NEW ENGLAND BIOLABS, INC., priority 2008, published 2011)
Positions count from the first letter of the chain named. Names and notes keep the numbering of the source.

B1: Mma exo-: exonuclease minus DNA polymerase from Methanococcus maripaludis, SEQ ID NO:22 (protein, listed as Methanococcus maripaludis)
chain: MESLIDLDYNSDDLCIYLYLINSIIKEKDFKPYFYVNSTDKEQILEFLKDYEKKHKLDSEISKMIENIETVKKIVFDENYQEKELSKVTVKYPNNVKTVREILMEFERLYEYDIPFVRRYLIDNSVIPTSTWDFENNKKIDNKIPDFKTVSFAIAVYCNKEPNPKKDPIIMASFSSKDFNTVVSTKKFDHEKLEYVKDEKELIKRIIEILKEYDIIYTYNGDNFDFPYLKKRAESFGLELKLGKNDEKIKITKGGMNSKSYIPGRVHIDLYPIARRLLNLTKYRLENVTEALFDVKKVDVGHENIPKMWDNLDETLVEYSHQDAYYTQRIGEQFLPLEIMFSRVVNQSLYDINRMSSSQMVEYLLLKNSYKMGVIAPNRPSGKEYQKRIRSSYEGGYVKEPLKGIHEDIVSMDFLSLYPSIIMSHNLSPETIDCTCCSDEENGENEEILGHKFCKKSIGIIPKTLMDLINRRKKVKKVLREKAEKGEFDEEYQILDYEQRSIKVLANSHYGYLAFPMARWYSRDCAEITTHLGRQYIQKTIEEAENFGFKVIYADTDGFYSKWADDKEKLSKYELLEKTREFLKNINNTLPGEMELEFEGYFKRGIFVTKKKYALIDENEKITVKGLEVVRRDWSNVSKNTQKNVLNALLKEGSVENAKKVIQDTIKELKDGKVNNEDLLIHTQLTKRIEDYKTTAPHVEVAKKILKSGNRVNTGDVISYIITSGNKSISERAEILENAKNYDTNYYIENQILPPVIRLMEALGITKDELKDSKKQYTLHHFLK
modifications: (1)..(784) Exo-
B2: 9° N exo-L408P/Y409A/S411T: 9° N DNA polymerase mutant, SEQ ID NO:6 (protein)
chain: MILDTDYITENGKPVIRVFKKENGEFKIEYDRTFEPYFYALLKDDSAIEDVKKVTAKRHGTVVKVKRAEKVQKKFLGRPIEVWKLYFNHPQDVPAIRDRIRAHPAVVDIYEYDIPFAKRYLIDKGLIPMEGDEELTMLAFAIATLYHEGEEFGTGPILMISYADGSEARVITWKKIDLPYVDVVSTEKEMIKRFLRVVREKDPDVLITYNGDNFDFAYLKKRCEELGIKFTLGRDGSEPKIQRMGDRFAVEVKGRIHFDLYPVIRRTINLPTYTLEAVYEAVFGKPKEKVYAEEIAQAWESGEGLERVARYSMEDAKVTYELGREFFPMEAQLSRLIGQSLWDVSRSSTGNLVEWFLLRKAYKRNELAPNKPDERELARRRGGYAGGYVKEPERGLWDNIVYLDFRSPAPTIIITHNVSPDTLNREGCKEYDVAPEVGHKFCKDFPGFIPSLLGDLLEERQKIKRKMKATVDPLEKKLLDYRQRAIKILANSFYGYYGYAKARWYCKECAESVTAWGREYIEMVIRELEEKFGFKVLYADTDGLHATIPGADAETVKKKAKEFLKYINPKLPGLLELEYEGFYVRGFFVTKKKYAVIDEEGKITTRGLEIVRRDWSEIAKETQARVLEAILKHGDVEEAVRIVKEVTEKLSKYEVPPEKLVIHEQITRDLRDYKATGPHVAVAKRLAARGVKIRPGTVISYIVLKGSGRIGDRAIPADEFDPTKHRYDAEYYIENQVLPAVERILKAFGYRKEDLRYQKTKQVGLGAWLKVKGKK
modifications: Thermococcus sp. 9 degrees N DNAP mutant
B3: 9° N D141A/E143A/Y409A/S411T: 9° N DNA polymerase mutant (protein, UniProt Q56366 1-775, looked up, variant D141A E143A Y409A S411T)
DNA polymerase: B2 chain with P408L
B4: 9° N D141A/E143A/N491L/Y494S: 9° N DNA polymerase mutant (protein, UniProt Q56366 1-775, looked up, variant D141A E143A N491L Y494S)
DNA polymerase: B2 chain with P408L, A409Y, T411S, N491L, Y494S
B5: 9° N D141A/E143A/Y409A/P410R/S411T: 9° N DNA polymerase mutant (protein, UniProt Q56366 1-775, looked up, variant D141A E143A Y409A P410R S411T)
DNA polymerase: B2 chain with P408L, P410R
B6: 9° N D141A/E143A/L408S/Y409A/P410V/S411T: 9° N DNA polymerase mutant (protein, UniProt Q56366 1-775, looked up, variant D141A E143A L408S Y409A P410V S411T)
DNA polymerase: B2 chain with P408S, P410V
B7: 9° N D141A/E143A/L408P/Y409A/P410V/S411T: 9° N DNA polymerase mutant (protein, UniProt Q56366 1-775, looked up, variant D141A E143A L408P Y409A P410V S411T)
DNA polymerase: B2 chain with P410V

Assays:
3′-O-azidomethyl-dCTP = experiment: Titration assay, incorporation of 3′-O-azidomethyl-dCTP; assay type: biochemical; details: for 3′-O-azidomethyl-dCTP incorporation / termination of synthesis: 72° C. (9° N) or 37° C.
Protocol: Reactions were also performed in the absence of terminators to ensure that synthesis by each DNA polymerase was sufficient to extend primers without premature termination (“dNTP” lanes). Reactions with Therminator™ (NEB, Inc., Ipswich, Mass.) and 9° N exo-L408P/Y409A/S411T DNA polymerase (SEQ ID NO:6) were incubated at 72° C. for 30 minutes. Reactions with E. coli Polymerase I (pol I) (NEB, Inc., Ipswich, Mass.), Sequenase™, (USB, Inc., Cleveland, Ohio), Mma exo- and Mma exo-L417P/Y418A/S420T were incubated at 37° C. for 30 minutes. Each band corresponds to a DNA fragment terminated by a 3′-azido-dCMP. Using a titration assay as described in Gardner and Jack (2002), the relative 3′-azido-dCTP incorporation efficiency was determined for a series of DNA polymerases.
Incorporation of 3′-O-azidomethyl-dCTP by various DNA polymerases was measured using the titration assay as described in Example 1. For each reaction, a ratio of either 10:1 or 1:1 3′-O-azidomethyl-dCTP:dNTP was used to generate a termination pattern. Each band corresponded to a DNA fragment terminated by a 3′-azido-dCMP. A control reaction lacking terminator (dNTP) which yielded large extension products gave assurance that the DNA polymerase was active, and that termination products resulted from terminator incorporation rather than incomplete polymerization. Reactions with Therminator™ (NEB, Inc., Ipswich, Mass.) and 9° N exo-L408P/Y409A/S411T DNA polymerase were incubated at 72° C. for 30 minutes. Reactions with E. coli Polymerase I (pol I) (NEB, Inc., Ipswich, Mass.), Sequenase™ (USB, Inc., Cleveland, Ohio), Mma exo- and Mma exo-L417P/Y418A/S420T were conducted at 37° C. for 30 mintues. Therminator™ (NEB, Inc., Ipswich, Mass.) DNA polymerase was assayed with a 1:1 ratio of acyCTP as control.

modified nucleotide = experiment: Screen of DNA polymerase mutants for modified nucleotide incorporation; assay type: biochemical
Source text: In order to determine the extent of 3′-modified nucleotide incorporation by archaeon DNA polymerases, the titration assay described by Gardner and Jack (2002) was used. In this assay, the efficiency of incorporation of chain terminators was judged by the size of the reaction products in a polymerization reaction. As the efficiency of chain-terminator incorporation increased, the average reaction product size decreased because polymerization was more often halted by terminator addition. By comparing the amount of terminator required to give the same spectrum of reaction products, the relative efficiency of incorporation of the test compounds with the different polymerases was determined.
A complex library of 9° N DNA polymerase mutants was screened for enhanced incorporation of 3′-azido-ddCTP. Several classes of 9° N DNA polymerase mutants were identified with enhanced terminator incorporation. 9° N exo-L408S/Y409A/P410V (Therminator III™, NEB, Inc., Ipswich, Mass.) was purified and characterized in more detail. 9° N DNA polymerase single mutants P410V, L408S, and Y409A and double mutants L408S/P410V, L408S/Y409A, and Y409A/P410V were also purified for comparison. Purification and characterization of DNA polymerase mutants was as described in Gardner and Jack, Nucleic Acids Res. 27:2545-2553 (1999).
A library of 9° N DNA polymerase mutants was constructed by PCR amplification of the polymerase genes using gene-specific primers or codon optimization and gene synthesis Czar et al. Trends Biotechnol 27(2): 63-72 (2009)). The ability to incorporate 3′-modified nucleotide terminators was evaluated by the titration assay for chain terminator incorporation efficiency as described by Gardner and Jack (2002).
Furthermore, the same assay was used to measure 3′-amino-ddCTP incorporation by 9° N exo-L408S/Y409A/P410V (FIG. 3) and to measure rates of incorporation (FIG. 4). Examples of mutants that increased modified nucleotide incorporation by at least two-fold were: […]

[1] = 10:1 or 1:1 3′-O-azidomethyl-dCTP:dNTP, 30 minutes

Molecule | 3′-O-azidomethyl-dCTP incorporation / termination of synthesis (3′-O-azidomethyl-dCTP; [1]) | increase of modified nucleotide incorporation (modified nucleotide) | other results
E. coli DNA polymerase I (pol I): commercial E. coli DNA polymerase I (NEB, Inc.) [reference compound] | failed to terminate synthesis |  | 
B1 | failed to terminate synthesis |  | relative 3′-O-azidomethyl-dCTP incorporation efficiency, rank order (3′-O-azidomethyl-dCTP; 10:1 or 1:1 3′-O-azidomethyl-dCTP:dNTP, 72° C. or 37° C., 30 minutes, FIG. 8): greater than Sequenase™
B2 | incorporated 3′-O-azidomethyl-dCTP efficiently | at least two-fold | effect of the mutations on 3′-O-azidomethyl-dCTP incorporation (3′-O-azidomethyl-dCTP; versus parent exo- polymerase): increased 3′-O-azidomethyl-dCTP incorporation
B3 |  | at least two-fold | 
B4 |  | at least two-fold | 
B5 |  | at least two-fold | 
B6 |  | at least two-fold | 
B7 |  | at least two-fold | 
